Substitutions are numbered along the chain they refer to.
Key:
[1] = test system: KG-1 (acute myeloid leukemia) xenograft; type: in vivo, NOD-SCID mice; conditions: Table 44; dose not given; KG-1 AML model
Description: Subcutaneous tumors are generated by injection of 1×10^7 cancer cells in a mixture of PBS (without magnesium or calcium) and BD Matrigel™ (BD Biosciences) at a 1:1 ratio in the right flank of female SCID or nu^−/− mice. The injected total volume per mouse is […] with 50% being Matrigel (BD Biosciences). Mice are randomized once tumors reach a size between 65-200 mm^3. Antibodies are administered weekly, and body weights and tumors are measured once and twice weekly, respectively. Tumor volume is calculated as described (van der Horst et al. (2009) Neoplasia 11: 355-364). As a negative control, mice are injected with either purified mouse IgG or PBS; or a purified monoclonal antibody that recognizes an antigen other than C16orf54.
Anti-C16orf54 antibodies were tested for their anti-tumor activity in an animal-tumor model. For these studies, the cell line KG-1 (acute myeloid leukemia) was obtained from ATCC and cultured according to the suppliers' protocols. Animals were obtained from Taconic (Hudson, N.Y.). Studies were conducted with anti-C16orf54 antibodies and antibody-drug conjugates (ADCs) of these antibodies.
In these experiments, 4-6 week-old immunodeficient NOD-SCID female mice were used for the KG-1 tumor model. Mice were subcutaneously injected on the right flank with 6×10^6 viable cells (KG-1) in a mixture of PBS (without magnesium or calcium) and BD Matrigel™ (BD Biosciences). Once the tumor reached a size between 65-200 mm^3 mice were randomized. Anti-C16orf54 antibodies were administered weekly, and bodyweights and tumors were measured once and twice weekly, respectively. Tumor volume was calculated as described (van der Horst et al., supra). Experiments were performed on groups of at least eight animals per experimental point.
Statistical significance between treatment and control groups was calculated using the Graphpad Prism® software package and applying Student's two-tailed t-test. A p-value of less than 0.05 was considered significant.

human C16orf54 [2] = target: T1, human C16orf54 (human, UniProt Q6UWD8 1-224); experiment: cell-based or functional assay
T1 construct: also called huC16orf54; hC16orf54
T1 sequence: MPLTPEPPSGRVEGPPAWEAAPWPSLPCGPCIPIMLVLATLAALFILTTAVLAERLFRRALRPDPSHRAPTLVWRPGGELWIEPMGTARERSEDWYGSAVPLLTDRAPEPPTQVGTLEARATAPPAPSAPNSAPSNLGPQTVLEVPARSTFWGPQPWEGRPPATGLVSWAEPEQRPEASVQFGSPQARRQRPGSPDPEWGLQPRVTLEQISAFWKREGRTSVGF

human C16orf54 [3] = target: T1, human C16orf54; experiment: flow cytometry, 10 ug/ml antibody, D42M1-huC16orf54 cells
Description: (§1) Anti-C16orf54 antibodies which bound to human C16orf54 were tested for their reactivity with human C16orf54 and their crossreactivity with C16orf54 from cynomolgous monkeys (cyno C16orf54) using flow cytometry. Sarcoma cells transfected with and expressing human C16orf54 or cyno C16orf54 were washed with PBS with 0.1% BSA, incubated with FcX receptor blocking solution (BioLegend) for 15 minutes, incubated with 10 μg/ml of anti-C16orf54 antibody for 1 hour at 4° C., washed twice with PBS with 0.1% BSA, incubated with 20 μg/ml of R-Phycoerythrin-AffiniPure F(ab′)2 Fragment Goat Anti-Mouse IgG, Fcγ Fragment Specific (Jackson ImmunoResearch) for 30 minutes at 4° C., washed twice with PBS with 0.1% BSA, incubated with the viability dye TO-PRO-3 iodide (Life Technologies), and immediately analyzed on a MACSQuant Analyzer instrument (Miltenyi). For each cell line and anti-C16orf54 antibody, a fold change was derived by dividing the median fluorescence intensity for Phycoerythrin in the live cell population for the anti-C16orf54 antibody by the median fluorescence intensity for Phycoerythrin in the live cell population for the IgG isotype control antibody. A number of anti-C16orf54 antibodies (see, e.g., R29-8-57B, R29-8-136C, R29-7-1C, R29-67-7A, R29-67-4A, and R29-7-2A) bind human C16orf54 and also bind (e.g., are crossreactive with) cyno C16orf54.

human C16orf54 [4] = target: T1, human C16orf54; experiment: flow cytometry titration, KG1 cells (endogenous human C16orf54)
[5] = target: T2, cynomolgus monkey C16orf54 (cynomolgus monkey (Macaca fascicularis), UniProt Q6UWD8 1-224 (human entry)); experiment: flow cytometry, 10 ug/ml antibody, F279-cyno-C16orf54 cells
T2 construct: also called cyno C16orf54; cyno-C16orf54
T2 chain: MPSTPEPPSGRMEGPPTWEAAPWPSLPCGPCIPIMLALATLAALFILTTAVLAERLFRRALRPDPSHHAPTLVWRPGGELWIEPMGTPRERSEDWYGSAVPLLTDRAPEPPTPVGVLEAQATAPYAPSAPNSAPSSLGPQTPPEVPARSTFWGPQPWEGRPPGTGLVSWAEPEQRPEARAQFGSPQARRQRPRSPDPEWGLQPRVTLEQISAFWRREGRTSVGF
Description: as §1

O=P1(N(CCCl)CCCl)NCCCO1 (stereo not drawn) [Cyclophosphamide]
TGI [1]: −42% | Volume [1]: 1580 mm^3

B1: R29-7-1C-mcMMAF (protein)
VH: DVQLQESGPGLVKPSQSLSLTCTVTGYSITSDYAWNWIRQFPGNKLEWMGYISYSGSIRYNPSLKSRISITRDTSKNQFFLQLNSVTTEDTATYYCAREKYDNYYYAMDYWGQGTSVTVSS
VL: DIVMSQSPSSLAVSVGEKVTLSCKSSQNLLYSTNQKNYLAWYQQKPGQSPKLLIYWASTRESGVPDRFTGSGSGTDFTLTISSVKAEDLAVYYCQQYYSYRTFGGGTKLEIK
modifications: maleimidocaproyl-monomethylauristatin F (MC-MMAF) on reduced cysteine thiols of the antibody; positions not given
IC50 nM, cell viability, C16orf54 expressing sarcoma line 2, 72 hours (human C16orf54 [2]): 0.2 nM | IC50 (nM), cell viability, C16orf54 expressing Sarcoma line 1, 72 hours (human C16orf54 [2]): 0.1 nM

B2: R29-8-57B mcMMAF (protein)
VH: B1 VH with S53N, I58T, Q78H, T88P, Y95H, K100R, N103G, Y104V, A107G
VL: B1 VL with L21M, N28S, T33S, A86T
modifications: maleimidocaproyl-monomethylauristatin F (MC-MMAF) on reduced cysteine thiols of the antibody; positions not given
IC50 nM, cell viability, C16orf54 expressing sarcoma line 2, 72 hours (human C16orf54 [2]): 0.1 nM | IC50 (nM), cell viability, C16orf54 expressing Sarcoma line 1, 72 hours (human C16orf54 [2]): 0.2 nM

B3: R29-67-7A mcMMAF (protein)
VH: B1 VH with S53N, S57R, I58T, K65N, I70L, K76T, K100N, N103Y, Y104E, Y105F
VL: B1 VL with L21M, T33S, S99I
modifications: maleimidocaproyl-monomethylauristatin F (MC-MMAF) on reduced cysteine thiols of the antibody; positions not given
IC50 nM, cell viability, C16orf54 expressing sarcoma line 2, 72 hours (human C16orf54 [2]): 0.1 nM | IC50 (nM), cell viability, C16orf54 expressing Sarcoma line 1, 72 hours (human C16orf54 [2]): 0.1 nM

B4: R29-8-50C (antibody, V domains shown)
VH: EVKLVESGGGLVKPGGSLKFSCAASGFTFSSYAVSWVRQTPEKRLEWVASITSGGRTYYPDSVKGRFTISRDNARSMLYLHMSSLRSEDTAMYYCTRGWDENDLWGQGTTLTVSS
VL: DVVMTQTPLSLPVSLGDQASISCRSSQSLVYSNGNTYLHWYLQRPGQSPQLLIYKVSNRFSGVPDRFSGSGSGTDFTLKISRVEAEDLGVYFCSQTTHVPWTFGGGTKLEIK
notes: Murine monoclonal antibody from a hybridoma
Median fold change relative to IgG control (human C16orf54 [3]): 159 fold | EC50 (human C16orf54 [4]): 0.7 nM | Median fold change relative to IgG control [5]: 3.2 fold

B5: R29-8-19B (antibody, V domains shown)
VH: B4 VH
VL: B4 VL with R44K
notes: as for B4
Median fold change relative to IgG control (human C16orf54 [3]): 198 fold | EC50 (human C16orf54 [4]): 0.9 nM | Median fold change relative to IgG control [5]: 4.5 fold

B6: R29-8-120B (antibody, V domains shown)
VH: KVNLVESGGGLVKAGGSLKLSCAASGFTFSIYAMSWFRQTPEKRLEWVASITGGGTNFYPDSVRGRFTISRDNVRNILYLQMSSLRSEDTAMYYCARGWDENDYWGQGTTLTVSS
VL: B4 VL with R44K, Q50K, T96S
notes: as for B4
Median fold change relative to IgG control (human C16orf54 [3]): 106 fold | EC50 (human C16orf54 [4]): 2.6 nM | Median fold change relative to IgG control [5]: 5.2 fold

B7: R29-8-9B (antibody, V domains shown)
VH: EVKLVESGGGVVKPGGSLKLSCAASGFTFSSYAMSWFRQTSEMSLEWVASITGGGGTYYPDSVKGRFTISRDTVRNILYLQMRSLRSGDTAIYYCARGWDENDYWGQGTTLTVSS
VL: B4 VL with T7I, Y31F, L42F, R44K, Q50K, T77I, K79R, T96S
notes: as for B4
Median fold change relative to IgG control (human C16orf54 [3]): 194 fold | EC50 (human C16orf54 [4]): 1.5 nM | Median fold change relative to IgG control [5]: 2 fold

B8: R29-7A-53A (antibody, V domains shown)
VH: QVQLKESGPGLVAPSQSLSITCTVSGFSLTDYAISWIRQPPGKGLEWLGVIWGGGRTYSNSALKSRLSISKDNSRSQIFLKMNSLQTDDTAMYYCAKHEEVSRFAYWGQGTLVTVSV
VL: B4 VL with M4L, T36S, R44K, Q50K, S81T, T96S, V99I, W101L, G105A, I111L
notes: Murine monoclonal antibody from a hybridoma; also called R29-7-53A
Median fold change relative to IgG control (human C16orf54 [3]): 5.7 fold | Median fold change relative to IgG control [5]: 1.2 fold

B9: R29-8-28C (antibody, V domains shown)
VH: EVKLVESGGGVVKPGGSLTLSCAASGFTFSNYAVSWFRQTPEKRLEWVASITSGGRTYYPDSMKGRFTISRDNARNILYLQMSSLRSEDTAIYYCGRGWDENDYWGQGTTLTVSS
VL: B4 VL with R44K, Q50K, S81N
notes: as for B4
Median fold change relative to IgG control (human C16orf54 [3]): 156 fold | EC50 (human C16orf54 [4]): 2.1 nM | Median fold change relative to IgG control [5]: 3.3 fold

B10: R29-7A-54C (antibody, V domains shown)
VH: B8 VH
VL: B4 VL with M4L, T36S, R44K, Q50K, S81T, T96S, V99I, W101L, G105A, I111L
notes: Murine monoclonal antibody from a hybridoma; also called R29-7-54C
Median fold change relative to IgG control (human C16orf54 [3]): 12.1 fold | Median fold change relative to IgG control [5]: 1 fold

B11: R29-8-36C (antibody, V domains shown)
VH: B4 VH with T57S
VL: B4 VL with P12F, V30L
notes: as for B4
Median fold change relative to IgG control (human C16orf54 [3]): 184 fold | EC50 (human C16orf54 [4]): 0.6 nM | Median fold change relative to IgG control [5]: 3.6 fold

B12: R29-8-12A (antibody, V domains shown)
VH: B4 VH
VL: B4 VL with R44K
notes: as for B4
Median fold change relative to IgG control (human C16orf54 [3]): 193 fold | EC50 (human C16orf54 [4]): 1.1 nM | Median fold change relative to IgG control [5]: 3.6 fold

From patent US20150231240A1, “ANTI-C16ORF54 ANTIBODIES AND METHODS OF USE THEREOF” (priority 2012, published 2015)
